The nature of the data set: soluble on expression in E. coli; label from the status in PepcDB or PDB records.
On to “EQAPQYVDETISLSAKTLFGFDKDSLRAEAQDNLKVLAQRLSRTNIQSVRVEGHTDFMGSDKYNQALSERRAYVVANNLVSNGVPVSRISAVGLGESQAQMTQVCEAEVAKLGAKVSKAKKREALIACIEPDRRVDVKIRSIVTRQVVPAHNHHQHLEHHHHHH”, for which the “soluble on expression in E. coli” value is given as “soluble”.
On to “ERGKFAAVFNDITERRLMEDELRRQEQSHRLVLDNIPDIIARFDRELRHLYVSAAITRVTGFPPEHFIGRTNREIGMPDELVDRWDAAINEVFSSGREQRLEFTYQSPRGLRHFETTLIPERGADDSSAAVLVVNHD”, for which the “soluble on expression in E. coli” value was “not soluble”.
In the case of “ERSIGFDGVMYFYSDTEKIRDAAFEAALQDQLEWKIEGLKPYVIPADKTLSDRICREDILRGVTIAANGFYGPQGRRLRLPLKDEDLNRKIQAFDFNGSRITNYEMESSSLAGLAALMGHEAITVCCIIAGRKSEKMNTSYQGSIEGLIDLVLERI”, the “soluble on expression in E. coli” value is reported as “not soluble”.
Take “ERVDEKVFSAGTSIFRGILEKVKAPLMYGDREVWGMARASEDFFFILPVTDDLTPVLFYNRLTNEPCFVSDQGITEYFKFAQEGDYIEVEGSSVFMANLLYYRFFPTRITSYNAPIEGVVSKTGNPAFTIPMLPGVSDCIEISNNRKVFLTNQLGVVNITDGMEPPIIAGVSASYGSSVRVYGHVSQRWDIIGHCYLDIYPTNCYPLSTKPVAGDDEVFVKQQGRQIEIDSNSPIVQVVVYDLEGKSVFRKRMTENA”: the “soluble on expression in E. coli” value was “not soluble”.
Turning to “ESSRSAMMYIQELRSGLRDMHLLSCLESLRVSLNNNPVSWVQTFGAEGLASLLDILKRLHDEKEETSGNYDSRNQHEIIRCLKAFMNNKFGIKTMLETEEGILLLVRAMDPAVPNMMIDAAKLLSALCILPQPEDMNERVLEAMTERAEMDEVERFQPLLDGLKSGTSIALKVGCLQLINALITPAEELDFRVHIRSELMRLGLHQVLQELREIENEDMKVQLCVFDEQGDEDFFDLKGRLDDIRMEMDDFGEVFQIILNTVKDSKAEPHFLSILQHLLLVRNDYEARPQYYKLIEECVSQIVLHKNGTDPDFKCRHLQIDIERLVDQMIDKTKVEKSEAKATELEKKLDSELTARHELQVEMKKMENDFEQKLQDLQGEKDALDS”, the “soluble on expression in E. coli” value is given as “soluble”.
Regarding “ETDKKGENAPDTKRIKETLEKFSLENMRYVGILKSGQKVSGFIEAEGYVYTVGVGNYLGQNYGRIESITDDSIVLNELIEDSTGNWVSRKAELLLNSSDKNTEQAAAPAAEQN”, the “soluble on expression in E. coli” value is recorded as “soluble”.
With “ETGGERQLSPEKSEIWGPGLKADVVLPARYFYIQAVDTSGNKFTSSPGEKVFQVKVSAPEEQFTRVGVQVLDRKDGSFIVRYRMYASYKNLKVEIKFQGQHVAKSPYILKG”, the “soluble on expression in E. coli” value is on record as “soluble”.
Regarding “ETPAVQVSTNRQAIIINEQTQFKVDAALKNAGIQTDGMFVVDNSLKVRFKDTETQLKARDVIENTLGEGYITALNLLADSPEWMAKIKANPMFLGLDLRGGVHFTMQVDMKAAMQKTFERYSGDIRRELRREKIRSGTVRQAGNSLTVPLQDAGDVQKALPQLRKLFPEATLNSDGSNIVLTLSEEAVNKVCSDAVKQNITTLHNRVNELGVAEPVIQQSGADRIVVQLPGVQDTAKAKDIIGRTATLELRMVEDDPAKLREALEGNVPSGYELLSSGGDRPEILLISKQVELTGDNINDAQPSFDQMGAPAVSLSLDSAGGSIFGELTAANVGKRMAMVLIDQGKSEVVTAPVIRTAITGGRVEISGSMTTAEANDTSLLLRAGSLAAPMQIVEERTIGPSLGKENIEK”, the “soluble on expression in E. coli” value is recorded as “not soluble”.
Next, “ETTSSIGEKVWDDKDNQDGKRPEKVSVNLLANGEKVKTLDVTSETNWKYEFKDLPKYDEGKKIEYTVTEDHVKDYTTDINGTTITNKYTPGETSATVTKNWDDNNNQDGKRPTEIKVELYQDGKATGKTAILNESNNWTHTWTGLDEKAKGQQVKYTVEELTKVKGYTTHVDNNDMGNLITTNKYTPETTSSIGEKVWDDKDNQDGKRPEKVSVNLLANGEKVKTLDVTSETNWKYEFKDLPKYDEGKKIEYTVTEDHVKDYTTDINGTTITNKYTPGETSATVTKNWDDNNNQDGKRPTEIKVELYQDGKATGKTAILNESNNWTHTWTGLDEKAKGQQVKYTVEELTKVKGYTTHVDNNDMGNLITTNKYT”: “soluble”; “EVDPAKCVLQGEDLHRAREKQTASFTLLCKDAAGEIMGRGGDNVQVAVVPKDKKDSPVRTMVQDNKDGTYYISYTPKEPGVYTVWVCIKEQHVQGSPFTVTVRRKH”: “soluble”; “EVQLVESGGGLVQPGGSLRLSCAASGFTFSDYGIAWVRQAPGKGLEWVAFISDLAYTIYYADTVTGRFTISRDNSKNTLYLQMNSLRAEDTAVYYCARDNWDAMDYWGQGTLVTVSSASTKGPSVFPLAPSSKSTSGGTAALGCLVKDYFPEPVTVSWNSGALTSGVHTFPAVLQSSGLYSLSSVVTVPSSSLGTQTYICNVNHKPSNTKVDKKVEPKSCDKTHTC”: “soluble”.
Turning to “FDKLGNSAAIQEMNREVEAAAKRTSPVFLTGEAGSPFETVARYFHKNGTPWVSPARVEYLIDMPMELLQKAEGGVLYVGDIAQYSRNIQTGITFIIGKAERCRVRVIASCSYAAGSDGISCEEKLAGLFSESVVRIPPLS”, the “soluble on expression in E. coli” value is “soluble”.
On to “FEEHLKKKPLRERLLEIPELRTEGLRDCQVMAISNLEKSFKDYRPRALIQMATGSGKTYTAITFIYRLLKFADARKVLFLVDTKNLGEQAEQEFMAYVPNDDNRKFTELYNVQRLRSSYISSDSQVCISTIQRLYSILKGEDLDEKTEEENPAERGWQLKEPLPVVYNEKVPIEEFDFIVIDECHRSIY”, for which the “soluble on expression in E. coli” value is recorded as “not soluble”.
On to “FEKMKKEVEEILYNLKKEGGKYHCILAFSGGKDSVLALKLLKEKFKLNPLCVMVDNKYMAKEAIENALNVTKHYQVDLMILNRDYTDLFEDAIKRGESPCRRCSRLILREVWRVTKLLGLKYIITGHELP”, for which the “soluble on expression in E. coli” value is reported as “not soluble”.
On to “FFFSGGVPLDASLFEHKKLDPTQVRQVLQLVLWKLESLRQWEKERITGCIQAVAEHLQLKLRDVMPLMFPAITGHASSVSVLDAMEILGADLSRYRLRQALELLGGASKKETKEWEKIRDAIPG”, for which the “soluble on expression in E. coli” value is on record as “not soluble”.
For the sequence “FGLETVSENELAHSEEELRIILSESYKSGEINQSEFKYVNKIFEFDDRLAKEIMIPRTEIVSLPHDIKISEMMDIIQIEKYTRYPVEEGDKDNIIGVINIKEVLTACISGEVSVDSTISQFVNPIIHVIESAPIQDLLVKMQKERVHMAILSDEYGGTAGLVTVEDIIEEIVGEIR”, the “soluble on expression in E. coli” value was “soluble”.
As for “FHHYKILDTNILIDGRIYDLAKTGFLEGTLLVPNFVLYELQYIADSSDSVKRVRGRRGLDILNKLQNEHIMPIEMYEGDFEDIPEVDSKLIALAKQNGGVIVTNDYNLNKVIQFQNVQVLNINSLANALKPRVI”, the “soluble on expression in E. coli” value is reported as “not soluble”.
For “FKIETTPESRYLAQIGDSVSLTCSTTGCESPFFSWRTQIDSPLNGKVTNEGTTSTLTMNPVSFGNEHSYLCTATCESRKLEKGIQVEIYSFPKDPEIHLSGPLEAGKPITVKCSVADVYPFDRLEIDLLKGDHLMKSQEFLEDADRKSLETKSLEVTFTPVIEDIGKVLVCRAKLHIDEMDSVPTVRQAVKELQVYISPKNT”, the “soluble on expression in E. coli” value was “soluble”.
Regarding “FLYSNTSYRTLYLAAILYKAKADIRIVHDHLNHTSLADLKFKKYVYNHFKTQGQVIYFICTKKIQKRLRMTADQCARVNLLSNIAD”, the “soluble on expression in E. coli” value is on record as “soluble”.
On to “FMAKLTSAVPVLTARDVAGAVEFWTDRLGFSRDFVEDDFAGVVRDDVTLFISAVQDQVVPDNTLAWVWVRGLDELYAEWSEVVSTNFRDASGPAMTEIGEQPWGREFALRDPAGNCVHFVAEEQD”, for which the “soluble on expression in E. coli” value was “soluble”.
Turning to “FPDILDNRIEKMSSCFKQAAEEYGYKAENFIIYPIKVNQMRPVVEEIISHGKKFNLGLEAGSKPELHAVIAVNTDSDSLIVCNGYKDESYIELALLAQKMGKRIFLVVEKMNELKLIAKMAKQLNVQPNIGIRIKLASSGSGKWEESGGDASKFGLTSSELLEALDFMESKGLKDCLKLIHFHIGSQVTKIRRIKTALREASQFYVQLHSMGFNVEFVDIGGGLGVDYDGTRSSNSEGSVNYSIQEYVNDSISTLVDVSDKNGIPHPNIITESGRALTAH”, the “soluble on expression in E. coli” value was “soluble”.
For “FTQMVIRLHIYHLVSTVSPHNVNIDASIAARGLSGEGYRGHYFWDEIYIMPFFIQHLPEVARALLMFRYHRLDAAREYARDNGYHGAMYPWQTADDGREETPTIHYNPKSGAWDPDLSCRQRHVSIAVFYNAWRYVHDTGDTEFLNSYGAEMMFEIARFWASIATFSPDDGRYHIEGVMGPDEFHEELPGSGKPGLKDNSYTNIMTAWLLEKAIEISQRLDPAVMDGLMEKIGIGHDEFMKWRDISGKMNVLIDQNGILEQFDGYMGLKELDWEHYKLKYGNIHRMDRILKAENDSPDHYKVAKQADVLMTFYTLSPAEVCAILENLGYHVADPLRFVRDNYAFYEPRTSHGSTLSKVVHSIISSYLPNGHEMAWNWFIEALRSDIHDTQGGTTPEGLHCGVMAGTIDTVT”, the “soluble on expression in E. coli” value is “not soluble”.
Take “GAEKEDLVQEGILGLLKAIKFYDETKSSFSSFAFLCIRREMISAIRKANTQKHMVLNEALKTNAILEDSAYFDDEGHNINNYKSSESNPEEAYLLKEEIEEFKKFSENNFSKFEKEVLTYLIRGYSYREIATILSKNLKSIDNTIQRIRKKSEEWIKEEENIKR”: the “soluble on expression in E. coli” value is listed as “soluble”.
Regarding “GAGTQTAQTQALDSDGIPTGGEWITMFDGKTLNGWRGYCRQDVPLGWVVEDGSITYKGSDNKADTGFGDLIYDKKFKNFVFEIEWKIDKAGNSGIFYTAQEIEGTPIYYSSPEYQLLDNENMPDAWEGCDGNRQAGAVYDMIMPDPQPVKPYGNWNKTRIVVYNQRVIHYMNDVKILEFQFGTPVWRALVDHSKFSKFSTSPEKCPEAYDLMLQCGKQPGYIGMQDHGYGVCFRNIRIKEL”, the “soluble on expression in E. coli” value was “soluble”.
Regarding “GAMAPERPLVGVNGLDVTSLRPFDLVIPFTIKKGEITGEVRMPSGKVAQPTITDNKDGTVTVRYAPSEAGLHEMDIRYDNMHIPGSPLQFYVDYVNCGHVTAYGPGLTHGVVNKPATFTVNTKDAGEGGLSLAIEGPSKAEISCTDNQDGTCSVSYLPVLPGDYSILVKYNEQHVPGSPFTARVTGDD”, the “soluble on expression in E. coli” value is “soluble”.
Turning to “GAMDGNMKEVTQLPEPQTASLAELQQMKLFLKLLKKQEKELKELERKGSKRREELLQKYSVLFLEPVYPRGLDSQVVELKERLEMELIHLGEEYHDGIRRRKEQHATEQTAKITELAREKQIAELKALKESSESNIKDIKKKLEAKRLDRIQVMMRSTSDKAAQERLKKEINNSHIQEVVQTIKLLTEKTARYQQKLEEKQAENLRAIQEKEGQLQQEAVAEYEEKLKTLTVEVQEMVKNYMKEVFPDGPE”, the “soluble on expression in E. coli” value is on record as “soluble”.
On to “GAMDPEFQQSKVAPSSAASRPVLSSRSDQSQKNEVFLDVVERLSVLIASNGSLLKVDVQGEIRLKSFLPSGSEMRIGLTEEFSVGKSELRGYGPGIRVDEVSFHSSVNLDEFESHRILRLQPPQGELTVMRYQLSDDLPSPLPFRLFPSVQWDRGSGRLQVYLKLRCDLLSKSQALNVRLHLPLPRGVVSLSQELSSPEQKAELAEGALRWDLPRVQGGSQLSGLFQMDVPGPPGPPSHGLSTSASPLGLGPASLSFELPRHTCSGLQVRFLRLAFRPSGNANPHKWVRHLSHSDAYVIRI”, for which the “soluble on expression in E. coli” value is “soluble”.
For “GAMEGIKVFLHERELWLKFHEVGTEMIITKAGRRMFPSYKVKVTGLNPKTKYILLMDIVPADDHRYKFADNKWSVTGKAEPAMPGRLYVHPDSPATGAHWMRQLVSFQKLKLTNNHLDPFGHIILNSMHKYQPRLHIVKADENNGFGSKNTAFCTHVFPETAFIAVTSYQNHKITQLKIENNPFAKGFRGSDDMELHRMSRMQ”, the “soluble on expression in E. coli” value is on record as “soluble”.

Values taken from the DeepSol protein solubility set.
